Key:
[1] = molecular target: HIV-1 JR-CSF Env S306A (HIV-1 JR-CSF) (UniProt P20871); experiment: cell-based or functional assay
[2] = molecular target: HIV-1 JR-CSF Env T202A (HIV-1 JR-CSF) (UniProt P20871); experiment: cell-based or functional assay
[3] = molecular target: HIV-1 JR-CSF Env T388A (HIV-1 (isolate JR-CSF)) (UniProt P20871); experiment: cell-based or functional assay
[4] = molecular target: HIV-1 Env of isolate MGRM-A-006 (HIV-1); experiment: cell-based or functional assay
[5] = molecular target: HIV-1 Env of isolate 93UG077 (HIV-1); experiment: cell-based or functional assay
[6] = molecular target: HIV-1 Env of isolate MGRM-A-004 (HIV-1); experiment: cell-based or functional assay
[7] = molecular target: HIV-1 Env of isolate 92TH021 (HIV-1); experiment: cell-based or functional assay
[8] = molecular target: HIV-1 JR-CSF Env S393A (HIV-1 (isolate JR-CSF)) (UniProt P20871); experiment: cell-based or functional assay
[9] = molecular target: HIV-1 Env of isolate 92WR020 (HIV-1); experiment: cell-based or functional assay
[10] = molecular target: HIV-1 JRCSF envelope glycoprotein (Env) (HIV-1) (UniProt P20871); experiment: cell-based or functional assay
[11] = molecular target: HIV-1 JR-CSF Env N396A (HIV-1 (isolate JR-CSF)) (UniProt P20871); experiment: cell-based or functional assay
[12] = molecular target: HIV-1 JR-CSF Env D417A (HIV-1 (isolate JR-CSF)) (UniProt P20871); experiment: cell-based or functional assay
[13] = molecular target: Env of the clade G HIV-1 pseudoviruses of the cross-clade 162-pseudovirus panel (n = 15); experiment: cell-based or functional assay
[14] = molecular target: HIV-1 JR-CSF Env I414A (HIV-1 (isolate JR-CSF)) (UniProt P20871); experiment: cell-based or functional assay
[15] = molecular target: HIV-1 JR-CSF Env I326A (HIV-1 isolate JR-CSF) (UniProt P20871); experiment: cell-based or functional assay
[16] = molecular target: HIV-1 JR-CSF Env S199A (HIV-1 JR-CSF) (UniProt P20871); experiment: cell-based or functional assay
[17] = molecular target: HIV-1 JR-CSF Env W395A (HIV-1 (isolate JR-CSF)) (UniProt P20871); experiment: cell-based or functional assay
[18] = molecular target: HIV-1 JRFL envelope glycoprotein (Env) (HIV-1); experiment: cell-based or functional assay
[19] = molecular target: HIV-1 JR-CSF Env N301A (HIV-1 JR-CSF) (UniProt P20871); experiment: cell-based or functional assay
[20] = molecular target: HIV-1 JR-CSF Env T320A (HIV-1 isolate JR-CSF) (UniProt P20871); experiment: cell-based or functional assay
[21] = molecular target: HIV-1 JR-CSF Env I323A (HIV-1 isolate JR-CSF) (UniProt P20871); experiment: cell-based or functional assay
[22] = molecular target: HIV-1 Env of isolate MGRM-A-008 (HIV-1); experiment: cell-based or functional assay
[23] = molecular target: HIV-1 JR-CSF Env N339A (HIV-1 isolate JR-CSF) (UniProt P20871); experiment: cell-based or functional assay
[24] = molecular target: HIV-1 JR-CSF Env K343A (HIV-1 isolate JR-CSF) (UniProt P20871); experiment: cell-based or functional assay
[25] = molecular target: HIV-1 NL43 envelope glycoprotein (Env) (HIV-1); experiment: cell-based or functional assay
[26] = molecular target: HIV-1 JR-CSF Env T341A (HIV-1 isolate JR-CSF) (UniProt P20871); experiment: cell-based or functional assay
[27] = molecular target: Env of the clade F HIV-1 pseudoviruses of the cross-clade 162-pseudovirus panel (n = 15); experiment: cell-based or functional assay
[28] = molecular target: HIV-1 Env of isolate CMU02 (HIV-1); experiment: cell-based or functional assay
[29] = molecular target: Env of the clade A HIV-1 pseudoviruses of the cross-clade 162-pseudovirus panel (n = 26); experiment: cell-based or functional assay
[30] = molecular target: HIV-1 JR-CSF Env P299A (HIV-1 JR-CSF) (UniProt P20871); experiment: cell-based or functional assay
[31] = molecular target: HIV-1 JR-CSF Env I309A (HIV-1 JR-CSF) (UniProt P20871); experiment: cell-based or functional assay
[32] = molecular target: HIV-1 JR-CSF Env I420A (HIV-1 (isolate JR-CSF)) (UniProt P20871); experiment: cell-based or functional assay
[33] = molecular target: HIV-1 JR-CSF Env N411A (HIV-1 (isolate JR-CSF)) (UniProt P20871); experiment: cell-based or functional assay
[34] = molecular target: HIV-1 Env of isolate 92RW008 (HIV-1); experiment: cell-based or functional assay
[35] = molecular target: HIV-1 JR-CSF Env S334A (HIV-1 isolate JR-CSF) (UniProt P20871); experiment: cell-based or functional assay
[36] = molecular target: HIV-1 JR-CSF Env T394A (HIV-1 (isolate JR-CSF)) (UniProt P20871); experiment: cell-based or functional assay
[37] = molecular target: HIV-1 JR-CSF Env T413A (HIV-1 (isolate JR-CSF)) (UniProt P20871); experiment: cell-based or functional assay
[38] = molecular target: HIV-1 JR-CSF Env K305A (HIV-1 JR-CSF) (UniProt P20871); experiment: cell-based or functional assay
[39] = molecular target: HIV-1 MGRM-A-010 envelope glycoprotein (Env) (HIV-1); experiment: cell-based or functional assay
[40] = molecular target: HIV-1 JR-CSF Env T303A (HIV-1 JR-CSF) (UniProt P20871); experiment: cell-based or functional assay
[41] = molecular target: WT JR-FL gp120 (HIV-1 (isolate JR-FL)); experiment: ELISA on coated gp120; EC50 by nonlinear regression
[42] = molecular target: JR-FL gp120 ΔV1/ΔV2 (HIV-1 (isolate JR-FL)); experiment: as above

B1: PGT-126 (antibody, V domains shown)
VH: QPQLQESGPGLVEASETLSLTCTVSGDSTAACDYFWGWVRQPPGKGLEWIGGLSHCAGYYNTGWTYHNPSLKSRLTISLDTPKNQVFLKLNSVTAADTAIYYCARFDGEVLVYHDWPKPAWVDLWGRGTLVTVSS
VL: QSALTQPPSASGSPGQSISISCTGTSNRFVSWYQQHPGKAPKLVIYGVNKRPSGVPDRFSGSKSGNTASLTVSGLQTDDEAVYYCSSLVGNWDVIFGGGTKLTVL
B1 was tested, and the Fold IC50 increase relative to wild-type [1] was 0.7 fold, the Fold IC50 increase relative to wild-type [2] was 0.8 fold and the Fold IC50 increase relative to wild-type [3] was 0.6 fold. It also gave an IC50 (µg/mL), pseudovirus neutralization [4] greater than 50 µg/mL, an IC50 (µg/mL), pseudovirus neutralization [5] of 0.02 µg/mL and an IC50 (µg/mL), pseudovirus neutralization [6] greater than 50 µg/mL. The IC50 (µg/mL), pseudovirus neutralization [7] was 0.197 µg/mL, the Polyclonal Transfectant Neutralization Index (well 5141 B17) [7] was 2.74 and the Primary Neutralization Index (B cell culture well 5141 B17) [7] was 2.3. For the same binder, the Fold IC50 increase relative to wild-type [8] was 0.5 fold, the IC50 (µg/mL), pseudovirus neutralization [9] was 0.006 µg/mL and the IC50 neutralization [10] was 0.0061 µg/mL. It also gave a Fold IC50 increase relative to wild-type [11] of 1.7 fold, a Fold IC50 increase relative to wild-type [12] of 1 fold and a Median IC50 against viruses neutralized with an IC50 <50 µg/ml [13] of 0.18 µg/mL. The Fold IC50 increase relative to wild-type [14] was 0.4 fold, the Fold IC50 increase relative to wild-type [15] was 0.8 fold and the Fold IC50 increase relative to wild-type [16] was 0.8 fold. It also gave a Fold IC50 increase relative to wild-type [17] of 0.6 fold, an IC50 neutralization [18] of 0.014 µg/mL and a Fold IC50 increase relative to wild-type [19] of 314 fold. For the same binder, the Fold IC50 increase relative to wild-type [20] was 0.6 fold, the Fold IC50 increase relative to wild-type [21] was 0.9 fold and the IC50 (µg/mL), pseudovirus neutralization [22] was greater than 50 µg/mL. For the same binder, the Fold IC50 increase relative to wild-type [23] was 0.6 fold, the Fold IC50 increase relative to wild-type [24] was 1.2 fold and the IC50 neutralization [25] was greater than 10 µg/mL. For the same binder, the Fold IC50 increase relative to wild-type [26] was 0.5 fold, the Median IC50 against viruses neutralized with an IC50 <50 µg/ml [27] was 0.05 µg/mL and the IC50 (µg/mL), pseudovirus neutralization [28] was greater than 50 µg/mL. It also gave a Median IC50 against viruses neutralized with an IC50 <50 µg/ml [29] of 0.01 µg/mL, a Fold IC50 increase relative to wild-type [30] of 0.2 fold and a Fold IC50 increase relative to wild-type [31] of 1.2 fold. It also gave a Fold IC50 increase relative to wild-type [32] of 0.6 fold, a Fold IC50 increase relative to wild-type [33] of 0.7 fold and an IC50 (µg/mL), pseudovirus neutralization [34] of 0.008 µg/mL. The Fold IC50 increase relative to wild-type [35] was greater than 30 fold, the Fold IC50 increase relative to wild-type [36] was 0.6 fold and the Fold IC50 increase relative to wild-type [37] was 0.7 fold. It also gave a Fold IC50 increase relative to wild-type [38] of 1 fold, an IC50 neutralization [39] of 0.0033 µg/mL and a Fold IC50 increase relative to wild-type [40] greater than 250 fold. It also gave an EC50 [41] of 0.1 µg/mL and an EC50 [42] of 0.3 µg/mL.

Source: patent publication US20200024330A1
